The record followed here is patent publication US5703220.

Assay [1] has as its target human melanocortin-4 (MC4) receptor (human).
In assay [2] the target is human melanocortin-1 (MC1) receptor (human).

In assay [1], Pro^11 γ-MSH (peptide) displayed an EC50 of cAMP response in transfected Hepa cells of 100 nM and an efficacy of cAMP response in transfected Hepa cells (% of the maximum response of α-MSH) of 75.

As for β-MSH (peptide), in assay [2], the cAMP generation in transfected L-cells (fold lower potency) stood at 10.

In assay [1], γ-MSH (peptide) returned an EC50 of cAMP response in transfected Hepa cells of 20 nM and an efficacy of cAMP response in transfected Hepa cells (% of the maximum response of α-MSH) of 45.
